Measurements: US11584938B2, “Plant EPSPS mutant containing L195P and S247G mutations and encoding gene and use thereof” (GEVOTO LLC, priority 2017, dated 2023)

B1: G0: wild-type soybean EPSPS, amino acid sequence SEQ ID NO: 2; control (protein)
chain: MAAAEKPSTAPEIVLEPIKDISGTITLPGSKSLSNRILLLAALSEGTTVVDNLLYSEDIHYMLGALRTLGLRVEDDQTTKQAIVEGCGGLFPTIKESKDEINLFLGNAGTAMRPLTAAVVAAGGNASYVLDGVPRMRERPIGDLVAGLKQLGADVDCFLGTNCPPVRVNGKGGLPGGKVKLSGSVSSQYLTALLMAAPLALGDVEIEIVDKLISVPYVEMTLKLMERFGVSVEHSGDWDKFLVHGGQKYKSPGNAFVEGDASSASYFLAGAAVTGGTITVNGCGTSSLQGDVKFAEVLEKMGAKVTWSENSVTVTGPPQDSSGQKVLQGIDVNMNKMPDVAMTLAVVALFANGQTTIRDVASWRVKETERMIAICTELRKLGATVEEGPDYCVITPPEKLNVTAIDTYDDHRMAMAFSLAACGDVPVTIKDPGCTRKTFPDYFEVLERFTRH
modifications: Glycine max
notes: control
B2: G1: soybean EPSPS mutant, SEQ ID NO: 4, mutation L212(195)P (protein)
chain: MAAAEKPSTAPEIVLEPIKDISGTITLPGSKSLSNRILLLAALSEGTTVVDNLLYSEDIHYMLGALRTLGLRVEDDQTTKQAIVEGCGGLFPTIKESKDEINLFLGNAGTAMRPLTAAVVAAGGNASYVLDGVPRMRERPIGDLVAGLKQLGADVDCFLGTNCPPVRVNGKGGLPGGKVKLSGSVSSQYLTALLMAAPLALGDVEIEIVDKPISVPYVEMTLKLMERFGVSVEHSGDWDKFLVHGGQKYKSPGNAFVEGDASSASYFLAGAAVTGGTITVNGCGTSSLQGDVKFAEVLEKMGAKVTWSENSVTVTGPPQDSSGQKVLQGIDVNMNKMPDVAMTLAVVALFANGQTTIRDVASWRVKETERMIAICTELRKLGATVEEGPDYCVITPPEKLNVTAIDTYDDHRMAMAFSLAACGDVPVTIKDPGCTRKTFPDYFEVLERFTRH
B3: G2: soybean EPSPS mutant, SEQ ID NO: 6, merely containing the mutation P114(101)S; control (protein)
chain: MAAAEKPSTAPEIVLEPIKDISGTITLPGSKSLSNRILLLAALSEGTTVVDNLLYSEDIHYMLGALRTLGLRVEDDQTTKQAIVEGCGGLFPTIKESKDEINLFLGNAGTAMRSLTAAVVAAGGNASYVLDGVPRMRERPIGDLVAGLKQLGADVDCFLGTNCPPVRVNGKGGLPGGKVKLSGSVSSQYLTALLMAAPLALGDVEIEIVDKLISVPYVEMTLKLMERFGVSVEHSGDWDKFLVHGGQKYKSPGNAFVEGDASSASYFLAGAAVTGGTITVNGCGTSSLQGDVKFAEVLEKMGAKVTWSENSVTVTGPPQDSSGQKVLQGIDVNMNKMPDVAMTLAVVALFANGQTTIRDVASWRVKETERMIAICTELRKLGATVEEGPDYCVITPPEKLNVTAIDTYDDHRMAMAFSLAACGDVPVTIKDPGCTRKTFPDYFEVLERFTRH

System: transgenic rice plants
Assay: glyphosate resistance of the EPSPS mutant in transgenic rice plants sprayed with Roundup 41% ammonium glyphosate
Format: in vivo, rice (Nipponbare)
Excerpt: A method for detecting the glyphosate resistance of G1 (SEQ ID NO: 4) provided in Example 1, G3 (SEQ ID NO: 8) provided in Example 2, G4 (SEQ ID NO: 10) provided in Example 3, the soybean EPSPS mutant G5 (SEQ ID NO: 12) provided in Example 4, T1 (SEQ ID NO: 16) provided in Example 5, T3 (SEQ ID NO: 20) provided in Example 6, T4 (SEQ ID NO: 22) provided in Example 7, T5 (SEQ ID NO: 24) provided in Example 8, the wheat EPSPS mutant T6 (SEQ ID NO: 26) provided in Example 9, R1 (SEQ ID NO: 30) provided in Example 10, R3 (SEQ ID NO: 34) provided in Example 11, R4 (SEQ ID NO: 36) provided in Example 12, R5 (SEQ ID NO: 38) provided in Example 13, and the rice EPSPS mutant R6 (SEQ ID NO: 40) provided in Example 14 in the transgenic rice is as follows:
The plasmids (containing the EPSPS mutation gene) of the monoclonal resistant bacteria of pADV5-EPSPS in Examples 1-7 were extracted by a conventional method, followed by double enzyme digestion by Pac1 and BstEII, the small fragments were collected, and then the small fragments were ligated by using T4 DNA ligase, to the pGVP1 vectors that had undergone the same double enzyme digestion, to obtain a pGVP1-EPSPS vector having a structure as shown in FIG. 23.
EHA105 (Agrobacterium tumefaciens) competent cells were transformed by the pGVP1-EPSPS vector, and single colonies were picked up to perform bacterial colony PCR detection to identify positive strains; then the positive strains were inoculated into 1 mL of YEP culture medium containing 50 μg·mL^−1 kanamycin and 50 μg·mL^−1 rifampin to propagate, and then preserved at −80° C., or used for subsequent experiment.
400 μl of bacterium containing the target gene vector preserved at −80° C. was added to a culture dish of solid culture media containing YEP+50 μg/mL rifampin+50 μg/mL kanamycin, and cultured in the dark at 28° C. for 24 hours, then this bacterium was added to an infection culture medium, and this bacterial solution was adjusted to OD=0.2 as an infection liquid.
Sterilization and pre-culturing: mature rice (Nipponbare) seeds were manually shelled, and full seeds without bacterial plaque were selected, and sterilized according to following steps: putting the seeds into a 50 ml sterile centrifuge tube, adding 70% alcohol for disinfection for 30 seconds, pouring out the alcohol, and cleaning the seeds once with sterile water; adding 10-20 ml of 2.6% sodium hypochlorite solution for soaking and sterilizing for 20 minutes, pouring out the sodium hypochlorite solution, and soaking and cleaning the seeds with sterile water for 6-7 times, 3 minutes each time.
Induction and subculturing: the seeds were put on sterile filter paper for drying, and mature embryos were put in an induction culture medium with 12 embryos in each dish; the culture dishes were sealed with a sealing film after the operation was finished, the mature embryos were cultured in the dark at 30° C. for 21-28 days, calluses were transferred into a fresh culture medium, and continuously cultured for about 7-14 days, and spherical calluses with a size of 1-2 mm were taken as infection receptors.
the calluses were inoculated into a centrifuge tube or a culture cup, the prepared Agrobacterium tumefaciens suspension liquid was added for infection for 10 minutes, wherein the calluses were shaken several times; the bacterial solution was poured out, the calluses were taken out, and placed on sterile filter paper to suck out the surface bacterial solution (about 30 minutes); and the calluses were put on sterile filter paper in a culture dish, and cultured in the dark at 25° C. for 2-3 days.
Recovery culturing: the calluses having undergone co-culturing were inoculated in a recovery culture medium, and cultured in the dark at 30° C. for 5-7 days. First round of screening: the calluses were transferred to screening culture media 1 (S1) and cultured in the dark at 30° C. for 14 days. […]

[1] = 1× dosage 1060 g/hectare glyphosate sprayed, recorded on 10th day
[2] = 2× dosage 2120 g/hectare sprayed to plants surviving 1×, recorded 10 days later
[3] = 5× dosage 5300 g/hectare sprayed to plants surviving 2×, recorded 10 days later
[4] = 20× dosage 21200 g/hectare sprayed to plants surviving 5×, recorded 10 days later

Molecule	%++&+++ (percentage of plant having medium and high glyphosate resistance to the total number of plants observed) [1]	number of plants denoted by + (low glyphosate resistance) [1]	number of plants denoted by ++ (medium glyphosate resistance) [1]	number of plants denoted by +++ (high glyphosate resistance) [1]	number of plants denoted by − (no glyphosate resistance) [1]	glyphosate resistance / survival of the rice transformed by the EPSPS, in words (1× glyphosate dosage)	%++&+++ (percentage of plant having medium and high glyphosate resistance to the total number of plants observed) [2]	number of plants denoted by + (low glyphosate resistance) [2]	number of plants denoted by ++ (medium glyphosate resistance) [2]	number of plants denoted by +++ (high glyphosate resistance) [2]	number of plants denoted by − (no glyphosate resistance) [2]	&++&+++ (percentage of plant having medium and high glyphosate resistance to the total number of plants observed) [3]	number of plants denoted by + (low glyphosate resistance) [3]	number of plants denoted by ++ (medium glyphosate resistance) [3]	number of plants denoted by +++ (high glyphosate resistance) [3]	number of plants denoted by − (no glyphosate resistance) [3]	&++&+++ (percentage of plant having medium and high glyphosate resistance to the total number of plants observed) [4]	number of plants denoted by + (low glyphosate resistance) [4]	number of plants denoted by ++ (medium glyphosate resistance) [4]	number of plants denoted by +++ (high glyphosate resistance) [4]	also measured
B1	0.0%	0	0	0	36	had no resistance and died	0.0%	0	0	0	36	0.0%	0	0	0	36	0.0%	0	0	0	number of plants denoted by − (no glyphosate resistance) [4]: 36
B2	16.7%	20	4	2	10	obviously superior to that of the rice seedlings transformed by G0	0.0%	19	0	0	17	0.0%	5	0	0	31	0.0%	0	0	0	number of plants denoted by − (no glyphosate resistance) [4]: 36
B3	47.1%	6	5	3	3	had certain resistance to glyphosate	0.0%	0	0	0	17	0.0%	0	0	0	17	0.0%	0	0	0	glyphosate resistance / survival of the rice transformed by the EPSPS, in words (2× glyphosate dosage): all rice seedlings containing the soybean EPSPS mutant G2 died; glyphosate resistance / survival of the rice transformed by the EPSPS, in words (5× glyphosate dosage): all rice seedlings containing the soybean EPSPS mutant G2 died; number of plants denoted by − (no glyphosate resistance) [4]: 17; glyphosate resistance / survival of the rice transformed by the EPSPS, in words (20× glyphosate dosage): all rice seedlings containing the soybean EPSPS mutant G2 died
